Assay results taken from article PMC2195672.

Target: HLA-A2 molecules immunoaffinity-purified from Jesthom cells, with added human β2-microglobulin (human (endogenous in Jesthom) | human)

HBV core 18-27, synthetic peptide was tested, and the Kd was 40 nM.
